Test results as given in patent publication US20230242902A1, “A HIGHLY ERROR-PRONE […] R[…] FOR TARGETED CONTINUOUS EVOLUTION IN VIVO” (The Regents of the University of California, priority 2017, published 2023).
Residue numbers refer to the chain shown, from its start. Names and notes keep the numbering of the source.

Test system: p1-encoded leu2 (Q180*)
Test: Large-scale p1 fluctuation tests of p1-encoded leu2 (Q180*), per-base substitution rate
Assay type: cell-based, S. cerevisiae
Conditions: per-base substitution rate, p1-encoded leu2 (Q180*), large-scale fluctuation test
Description: All three TP-DNAP1 libraries were screened through small scale p1 fluctuation tests in a metastable S. cerevisiae strain, OR-Y24. OR-Y24 contains w.t. p1 and recombinant p1 that lacks w.t. TP-DNAP1, and instead, encodes a standardized fluorescence reporter of p1 copy number (Table 1), and a disabled version of the LEU2 selection marker (leu2 (Q180*)). As described previously (Ravikumar et al., 2014), leu2 (Q180*) contains a C→T mutation at base 538 in LEU2 at a site permissive to all single point mutants that generate missense mutations. Reversion to functional LEU2 can be detected on medium lacking leucine.
Large-scale fluctuation tests of p1-encoded leu2 (Q180*) were performed to precisely determine per-base substitution rates for individually cloned or isolated TP-DNAP1 variants. Large-scale p1 fluctuation tests are performed similarly to small-scale p1 fluctuation tests, with several modifications. First, large-scale p1 fluctuation tests were typically performed with 36-48 replicates. For highly error-prone TP-DNAP1s obtained from later rounds of screening, fewer replicates (3-16) were used, which is sufficient for similar precision (Foster et al., 2006). Second, p1 copy number was determined by the flow cytometry method, described below. Third, cell titers were measured for each fluctuation test to estimate the average number of cells per culture. Cell resuspensions were diluted and plated on solid SC-UH medium, and colony counts were determined after incubation at 30° C. for 2-3 days. Alternatively, cell resuspensions were diluted and subject to an event-count measurement via flow cytometry. Fourth, inoculums of highly error-prone TP-DNAP 1 s occasionally contained pre-existing mutants, despite the 1:10,000 dilution, so mutant frequencies were estimated by plating pre-cultures on solid SC-UHLW, pH 5.8 medium. Plates were incubated for 2-3 days, in parallel with cultures grown for fluctuation tests. Pre-culture mutant titers were counted to estimate the number of replicates in the fluctuation test expected to contain pre-existing mutants (n). Revertants were counted from all replicates of the fluctuation tests, counts were sorted, and n replicates with the highest counts were omitted from calculations.
To calculate per-base substitution rates, fluctuation data were analyzed by the maximum likelihood method, implemented using newton.LD.plating in rSalvador 1.7 (Zheng, 2017). Phenotypic mutation rates were calculated by normalizing to the average number of cells per culture. Phenotypic mutation rates were divided by the measured p1 copy number and by the number of ways leu2 (Q180*) can revert to LEU2 (2.33 for the ochre codon) to yield per-base substitution rates. 95% confidence intervals were similarly scaled by these factors. All data related to large-scale p1 fluctuation tests are fully described in Table 2.

B1: L640Y, I777A (protein)
chain: MDYKDKALNDLRNVYADFDSLPLDFRQILIKDRATLLQKEDVEKKILERQEDAKKYAEYLKQSEIPERISLPNIKRHKGVSISFEETSEDMVLEPRPFIFDGLNIRCFRRETIFSLKNKILNMVKESSSFKNVSRQSVSFMYFKIFNKGKVIASTKSVNIYEDKIDERLEDLCNNFDDVLKKIIDVTYGYESLFVSETYSYVIFYAKSIYFPQPRCVNNWGNNIPNILTFDSFKLFTANKNNVSCIKQCSRFLWQKDFNTLEEMIEYKNGNICIVTPQLHINDVRDIKSFNDIRLYSESPIKTFSVIDNTITYLFYFKEHLGVIFNITKSRHDRRVTKFSPLSKFSDVKNITVCFDIESYFDPEKESNQVNIPFICCASIIYNKVIGNIVDFEGRDCVAQMIEYVVDICGELNISSVELIAHNGGGYDFHYILSSMYNPAAIKNILIRNNSFISFNFAHDGVKFSVKDSYSFLLCSLANASKAFLNEETFKKTDFPHHDLKTADDLYKVYKEWSSVNTEINHVVEKEKLLITSEHIVNFTKNDKSKTLIEWSKDYCRNDVLVLSKVWLEFKNAVEDIFNCELVDQTMTLAGLSYKLFQANMPFDVELRHPNKEDYFNMREALIGGRCISVNGIYKDVLCYDVKSLYPASMAFYDQPYGSFKRVSSRPKDELGIYYVRVTPNRNNKSNFFPIRSHNKITYNNFEESTYIAWYTNVDIDIGLSEGHNIEYIPFDSYGNIGYSWSKKGKIFEKYIKDVLYKLKIKYEKQNNKVKRNVIKAIMNSLWGKFAQKWVNFEYFIKSEDDIDFESEEAYKIWDTDFMLIKKIKESTYSSKPIQNGVFTLSWARYHMKSIWDAGAKEGAECIYSDTDSIFVHKEHFKKNAKFMLNGLKVPIIGSEVGQLELECEFDKLLCAGKKQYMGFYTYFQDGKPCIKEKKRFKGIPSNYIIPELYAHLLSGADKEAKIQFLKFRREWGSVKGYIENKTVKAT
- Mutation rate (s.p.b.): 5.70 × 10^−8 s.p.b.

B2: M779L, F968C (protein)
chain: B1 chain with Y640L, A777I, M779L, F968C
- Mutation rate (s.p.b.): 3.13 × 10^−10 s.p.b.

B3: I777K, W790L, K934W (protein)
chain: B1 chain with Y640L, A777K, W790L, K934W
- Mutation rate (s.p.b.): 2.02 × 10^−7 s.p.b.

B4: Y653L, I775A (protein)
chain: B1 chain with Y640L, Y653L, I775A, A777I
- Mutation rate (s.p.b.): 9.70 × 10^−9 s.p.b.

B5: I777K, F968T (protein)
chain: B1 chain with Y640L, A777K, F968T
- Mutation rate (s.p.b.): 3.19 × 10^−7 s.p.b.

B6: I777K, L909F (protein)
chain: B1 chain with Y640L, A777K, L909F
- Mutation rate (s.p.b.): 2.22 × 10^−7 s.p.b.

B7: V774I, F871Y (protein)
chain: B1 chain with Y640L, V774I, A777I, F871Y
- Mutation rate (s.p.b.): 1.64 × 10^−7 s.p.b.

B8: I775A, F871Y (protein)
chain: B1 chain with Y640L, I775A, A777I, F871Y
- Mutation rate (s.p.b.): 4.73 × 10^−8 s.p.b.

B9: I777A, V872I (protein)
chain: B1 chain with Y640L, V872I
- Mutation rate (s.p.b.): 1.34 × 10^−10 s.p.b.

B10: I775A, L900S (protein)
chain: B1 chain with Y640L, I775A, A777I, L900S
- Mutation rate (s.p.b.): 2.53 × 10^−8 s.p.b.

B11: M779L, K934W (protein)
chain: B1 chain with Y640L, A777I, M779L, K934W
- Mutation rate (s.p.b.): 2.85 × 10^−9 s.p.b.

B12: I777K, F968C (protein)
chain: B1 chain with Y640L, A777K, F968C
- Mutation rate (s.p.b.): 6.67 × 10^−7 s.p.b.

B13: I777K, V872I (protein)
chain: B1 chain with Y640L, A777K, V872I
- Mutation rate (s.p.b.): 2.59 × 10^−8 s.p.b.

B14: Y653L, I777A (protein)
chain: B1 chain with Y640L, Y653L
- Mutation rate (s.p.b.): 2.02 × 10^−8 s.p.b.

B15: I777A, K934W (protein)
chain: B1 chain with Y640L, K934W
- Mutation rate (s.p.b.): 1.86 × 10^−7 s.p.b.

B16: L645M, M779L (protein)
chain: B1 chain with Y640L, L645M, A777I, M779L
- Mutation rate (s.p.b.): 4.99 × 10^−9 s.p.b.

B17: I777A, L900S (protein)
chain: B1 chain with Y640L, L900S
- Mutation rate (s.p.b.): 1.36 × 10^−7 s.p.b.

B18: I775A, L909F (protein)
chain: B1 chain with Y640L, I775A, A777I, L909F
- Mutation rate (s.p.b.): 2.46 × 10^−8 s.p.b.

B19: I777A, L909F (protein)
chain: B1 chain with Y640L, L909F
- Mutation rate (s.p.b.): 1.07 × 10^−7 s.p.b.

B20: F652L, I775A (protein)
chain: B1 chain with Y640L, F652L, I775A, A777I
- Mutation rate (s.p.b.): 6.08 × 10^−9 s.p.b.

B21: I777K, F871Y (protein)
chain: B1 chain with Y640L, A777K, F871Y
- Mutation rate (s.p.b.): 1.35 × 10^−6 s.p.b.

B22: I777K, K934W (protein)
chain: B1 chain with Y640L, A777K, K934W
- Mutation rate (s.p.b.): 2.71 × 10^−7 s.p.b.

B23: I775A, F968T (protein)
chain: B1 chain with Y640L, I775A, A777I, F968T
- Mutation rate (s.p.b.): 7.29 × 10^−8 s.p.b.

B24: Y653L, I777K (protein)
chain: B1 chain with Y640L, Y653L, A777K
- Mutation rate (s.p.b.): 9.59 × 10^−8 s.p.b.

B25: I777A, F871Y (protein)
chain: B1 chain with Y640L, F871Y
- Mutation rate (s.p.b.): 2.57 × 10^−7 s.p.b.

B26: I775A, K934W (protein)
chain: B1 chain with Y640L, I775A, A777I, K934W
- Mutation rate (s.p.b.): 3.59 × 10^−8 s.p.b.

B27: L645M, I777K (protein)
chain: B1 chain with Y640L, L645M, A777K
- Mutation rate (s.p.b.): 9.19 × 10^−9 s.p.b.
